Data as given in patent publication US20200291071A1.

Key:
[1] = biological target: r6,Glm-Tei-pseudoaglycone (compound 12); test: ITC
[2] = biological target: r6,Glm-Tei-pseudoaglycone (compound 12); test: ITC (isothermal titration calorimetry), exothermic injections, sigmoidal isotherm over molar ratio about 0.45 to 1.85
[3] = biological target: r4,Glm-Tei-pseudoaglycone (compound 6)
[4] = biological target: r6,Glm-Tei-pseudoaglycone (compound 12)

| Kd [1] [µM] | Kd [2] [µM] | Molecule | Km (acyl-transfer kinetics, HPLC) [3] | Km (acyl-transfer kinetics, HPLC) [4] |
| --- | --- | --- | --- | --- |
| 5 | 5.1 | Dbv27 (methyltransferase encoded by gene dbv27) (enzyme) |  |  |
|  |  | Orf11*S (acyltransferase, single mutant W163A of Orf11*) (protein) MGSSHHHHHHSSGLVPRGSHMMMDPETVRIALGLEERTAAWLTELDELGPPAEPVRLPRGEEARDLLRRLEVPELDAEEIVAAAPDPDRDPALWWLLERTHHAIVRHMGDHRAKPRGGPPLPYEGGAAARYFHVYVFLATVPAVRRFHAERGIPDEVGWETLTQLGELVAIHRRKYGQGGMNMQAWTTYHLRGILYRLGRLQFSLATGKDGTPHLGLHVPEWGGPLLPKAYDESLHRARPFFDRHFPEHGARVAWGSSWMLDPQLEEYLTEDSNIIQLARFWTLTDSAPEPGNADGDSSILEFVFRYNGQPLDELPQRSSLERAVIAHLKAGRHWHMRTGFVKLP | Km=0.07 mM | Km=0.3±0.03 mM |
